In patent US8466270B2, “Methods for using artificial polynucleotides and compositions thereof to reduce transgene silencing” (Monsanto Technology LLC, priority 2002, dated 2013):

B1: CP4EPSPS_AT: Artificial polynucleotide encoding the CP4EPSPS protein using the Arabidopsis codon usage table (nucleic acid, listed as Agrobacterium tumefaciens)
DNA: ATGCTTCATGGAGCTTCATCTAGGCCAGCTACTGCCAGGAAGTCTAGCGGGCTCAGTGGCACCGTGCGCATCCCTGGCGATAAAAGTATTTCACACAGGAGCTTCATGTTCGGAGGACTTGCTAGTGGAGAGACGAGAATCACTGGTTTGCTTGAGGGCGAAGATGTTATCAACACCGGTAAGGCGATGCAAGCAATGGGTGCCAGAATCCGAAAAGAGGGCGATACGTGGATCATCGACGGTGTTGGTAACGGAGGATTGCTCGCTCCCGAAGCGCCACTTGACTTTGGGAACGCAGCTACGGGGTGCCGTCTTACTATGGGACTGGTAGGCGTGTATGACTTTGACTCTACCTTCATCGGTGACGCGAGCCTCACTAAGAGACCAATGGGACGAGTGCTGAATCCCCTGAGGGAGATGGGTGTCCAGGTGAAATCTGAGGATGGTGATCGTCTTCCGGTTACTCTGCGAGGCCCCAAGACCCCCACGCCAATCACGTACAGGGTTCCGATGGCGTCAGCACAGGTCAAGTCAGCGGTACTCCTGGCGGGCCTCAACACACCTGGAATCACAACCGTGATTGAACCCATCATGACTAGAGACCACACGGAGAAGATGTTGCAGGGTTTCGGCGCTAATCTAACGGTCGAAACCGACGCCGACGGCGTGAGGACAATCCGCTTGGAGGGCAGAGGTAAACTGACTGGCCAAGTCATCGATGTGCCTGGAGATCCCTCGTCCACAGCGTTTCCCCTCGTAGCTGCGTTGCTCGTCCCTGGATCTGATGTGACGATCCTGAATGTCCTCATGAATCCAACTAGAACCGGCCTCATCCTCACATTGCAGGAGATGGGTGCTGACATCGAGGTTATCAATCCTAGGTTGGCAGGTGGAGAGGATGTGGCCGATCTGCGCGTGCGTTCTAGTACACTCAAAGGCGTGACCGTCCCTGAGGATCGCGCTCCATCCATGATCGACGAGTACCCCATTCTCGCCGTTGCTGCTGCGTTTGCCGAGGGCGCAACTGTAATGAACGGCCTTGAGGAGTTGAGGGTTAAGGAGAGTGACAGGCTGTCCGCGGTGGCGAATGGCCTGAAGCTAAACGGCGTGGACTGCGACGAAGGTGAAACGTCCCTTGTAGTCCGTGGTCGCCCAGACGGGAAGGGGTTGGGGAATGCTTCGGGAGCTGCTGTGGCGACGCACCTTGATCATAGAATCGCCATGTCATTTCTGGTGATGGGACTTGTCTCCGAGAATCCGGTGACCGTTGACGATGCTACCATGATCGCCACCTCCTTTCCTGAGTTCATGGACCTCATGGCAGGCTTGGGGGCCAAGATCGAGCTGTCTGATACTAAGGCCGCTTGA
B2: CP4EPSPS_ZM: Artificial polynucleotide encoding the CP4EPSPS protein using the Zea mays codon usage table (nucleic acid, listed as Agrobacterium tumefaciens)
DNA: ATGCTACACGGTGCAAGCAGCCGGCCGGCAACCGCTCGCAAATCTTCCGGCCTTTCGGGAACGGTCAGGATTCCGGGCGATAAGTCCATATCCCACCGGTCGTTCATGTTCGGCGGTCTTGCCAGCGGTGAGACGCGCATCACGGGCCTGCTTGAAGGTGAGGACGTGATCAATACCGGGAAGGCCATGCAGGCTATGGGAGCGCGTATCCGCAAGGAAGGTGACACATGGATCATTGACGGCGTTGGGAATGGCGGTCTGCTCGCCCCTGAGGCCCCTCTCGACTTCGGCAATGCGGCGACGGGCTGCAGGCTCACTATGGGACTGGTCGGGGTGTACGACTTCGATAGCACGTTCATCGGAGACGCCTCGCTCACAAAGCGCCCAATGGGCCGCGTTCTGAACCCGTTGCGCGAGATGGGCGTACAGGTCAAATCCGAGGATGGTGACCGTTTGCCCGTTACGCTGCGCGGGCCGAAGACGCCTACCCCGATTACCTACCGCGTGCCAATGGCATCCGCCCAGGTCAAGTCAGCCGTGCTCCTCGCCGGACTGAACACTCCGGGCATCACCACGGTGATCGAGCCCATCATGACCAGGGATCATACCGAAAAGATGCTTCAGGGGTTTGGCGCCAACCTGACGGTCGAGACGGACGCTGACGGCGTCAGGACCATCCGCCTTGAGGGCAGGGGTAAACTGACTGGCCAAGTCATCGATGTTCCGGGAGACCCGTCGTCCACGGCCTTCCCGTTGGTTGCGGCGCTGCTCGTGCCGGGGAGTGACGTGACCATCCTGAACGTCCTCATGAACCCGACCAGGACCGGCCTGATCCTCACGCTTCAGGAGATGGGAGCCGACATCGAGGTGATCAACCCGCGCCTGGCAGGCGGTGAAGACGTTGCGGATCTGCGCGTGCGCTCCTCTACCCTGAAGGGCGTGACGGTCCCGGAAGATCGCGCGCCGTCCATGATAGACGAGTATCCTATTCTGGCCGTCGCCGCTGCGTTCGCCGAAGGGGCCACGGTCATGAACGGTCTTGAGGAACTCCGCGTGAAGGAATCGGATCGCCTGTCGGCGGTGGCCAATGGCCTGAAGCTCAACGGTGTTGACTGCGACGAGGGTGAGACCTCACTCGTGGTCCGTGGCCGGCCTGATGGCAAGGGCCTCGGCAACGCCAGTGGAGCGGCCGTCGCCACGCACCTCGATCATCGCATCGCGATGTCCTTCTTGGTGATGGGTCTCGTCTCAGAGAACCCGGTGACCGTCGATGACGCCACGATGATAGCGACGAGCTTCCCAGAGTTCATGGATCTGATGGCGGGCCTCGGGGCCAAGATCGAACTGTCTGACACGAAGGCCGCTTGA

Columns and labels:
transgenic cotton plants [1] = test: CP4EPSPS ELISA, enzyme level in R0 cotton lines; format: in vivo; conditions: relative to pMON20999 expression cassette
Method: (§1) Three plasmid constructs are evaluated in transgenic cotton plants (Table 21). The control construct (pMON20999) contains P-FMV/CP4EPSPS_Syn this expression cassette is contained in the commercially available glyphosate tolerant cotton line 1445 (Roundup Ready® cotton, Monsanto Co., St. Louis, Mo.). The plasmid constructs, pMON59313 and pMON59396 containing the CP4EPSPS_AT and CP4EPSPS_ZM polynucleotides, respectively, are assayed for transformation efficiency and CP4EPSPS enzyme levels relative to the commercial glyphosate tolerant expression cassette. About fifty transgenic cotton lines are evaluated for each construct.

transgenic cotton plants [2] = test: Cotton transformation (transformation efficiency, insert number); format: cell-based; conditions: relative to pMON20999
Method: as §1

CP4EPSPS polynucleotide = test: PCR detection of artificial CP4EPSPS polynucleotides in transgenic plants; set-up: species or system corn; conditions: amplicon size obtained with the primer pair specific for the gene; second figure in brackets
From the text: A DNA detection method (polymerase chain reaction, PCR) is designed to detect the artificial CP4EPSPS polynucleotides in transgenic plants. The unique sets of DNA primers shown in Table 26 are designed to amplify a specific CP4EPSPS polynucleotide and to provide distinctly sized amplicons. The amplicons differ sufficiently in polynucleotide length among the various CP4EPSPS polynucleotides to make easy separation of the amplicons by standard agarose gel electrophoresis. The presence of more than one of the artificial polynucleotides can be detected in a plant by using a multiplex PCR method.
DNA primer pairs (Table 26) are used to produce an amplicon diagnostic for a specified CP4EPSPS polynucleotide contained in a transgenic plant. These primer pairs include, but are not limited to SEQ ID NO:24 and SEQ ID NO:25 for the CP4EPSPS_AT polynucleotide; SEQ ID NO:26 and SEQ ID NO:27 for the CP4EPSPS_ZM; SEQ ID NO:28 and SEQ ID NO:29 for CP4EPSPS_Nat and SEQ ID NO:30 and SEQ ID NO:31 CP4EPSPS_Syn polynucleotide molecule. In addition to these primer pairs, any primer pair derived from SEQ ID NO:17 or SEQ ID NO:18 that when used in a DNA amplification reaction produces a DNA amplicon diagnostic for the respective CP4EPSPS polynucleotide is an aspect of the present invention. […]

Wheat plants = test: CP4EPSPS enzyme expression in wheat leaves by ELISA; format: in vivo
From the text: Wheat plants transformed with the new CP4EPSPS polynucleotides are compared for transformation efficiency and CP4EPSPS enzyme expression determined by ELISA (Table 25). […] The average expression of CP4EPSPS in leaves from wheat plants containing the CP4EPSPS_ZM polynucleotide is about 64% of that found in glyphosate resistant wheat that contains a double cassette construct, pMON30139: P-e35S/1-Hsp70/CP4EPSPS_Nat and P-OsAct1/I-OsAct1/CP4EPSPS_Nat (WO/0022704).

[3] = system: transgenic soybean plants; test: CP4EPSPS enzyme level in transgenic soybean plants; format: in vivo
Method: Constructs containing the artificial CP4EPSPS polynucleotides, CP4EPSPS_AT and CP4EPSPS_ZM are evaluated in soybean (Table 22). The plasmid constructs all contain the P-FMV promoter to drive expression of the new CP4EPSPS polynucleotides and are compared to the P-FMV/CP4EPSPS_Syn contained in pMON20999. About 25 to 30 transgenic soybean plants are produced for each construct. The transformation efficiency and CP4EPSPS enzyme, levels are measured.

Molecule | expression level of the CP4EPSPS enzyme (in words) (transgenic cotton plants [1]) | percentage of plants with a single insert (transgenic cotton plants [2]) | PCR product (bps) (CP4EPSPS polynucleotide) | CP4EPSPS enzyme expression relative to CP4EPSPS_AT (Wheat plants; wheat) | CP4 Exp. (%) CP4EPSPS expression (Wheat plants; wheat leaves, relative to pMON30139 double cassette wheat, ELISA) | expression level of CP4EPSPS protein (in words) [3]
B1 | increase in expression level | higher percentage of plants with a single insert | 938 (940) bps | – | – | –
B2 | – | – | 595 (600) bps | at least seven times higher | about 64% | surprisingly high expression level
